Numbered stars: 1 amine (or outer) side, 2 acyl side, 3 side chain; on linkers, the order of the positions; unused ones are H or OH. Bridge positions count the residues as written; N and C are the ends. Side chains are listed from the residue outwards. Ends that are not written are not given here. * marks the point of attachment. C20 diacid = O=C(O)CCCCCCCCCCCCCCCCCCC(=O)*; γGlu = O=C(O)[C@H](CCC(=O)[*:2])N[*:1]
T1: rat amylin receptor (rat calcitonin receptor + rat RAMP 3) (rat, UniProt P32214 25-516; Q9JJ73 23-147)
T1 construct: whole, on cells; Membranes prepared from transiently transfected BHK tk'ts 13 cells; also called rAmylin-R; rat amylin 3(a) receptor
T1 sequence (looked up) 1: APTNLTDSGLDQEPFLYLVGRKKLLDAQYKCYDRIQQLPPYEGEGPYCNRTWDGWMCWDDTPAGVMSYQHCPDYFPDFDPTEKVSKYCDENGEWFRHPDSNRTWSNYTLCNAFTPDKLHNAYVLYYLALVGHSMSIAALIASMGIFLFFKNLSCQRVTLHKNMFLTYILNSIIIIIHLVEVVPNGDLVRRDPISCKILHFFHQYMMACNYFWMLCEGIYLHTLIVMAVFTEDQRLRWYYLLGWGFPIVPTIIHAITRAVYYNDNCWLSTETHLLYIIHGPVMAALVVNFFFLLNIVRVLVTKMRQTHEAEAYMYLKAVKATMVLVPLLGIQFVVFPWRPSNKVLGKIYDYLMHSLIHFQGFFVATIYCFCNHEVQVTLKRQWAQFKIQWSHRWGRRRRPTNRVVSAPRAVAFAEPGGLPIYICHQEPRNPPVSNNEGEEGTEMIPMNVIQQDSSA
T1 sequence (looked up) 2: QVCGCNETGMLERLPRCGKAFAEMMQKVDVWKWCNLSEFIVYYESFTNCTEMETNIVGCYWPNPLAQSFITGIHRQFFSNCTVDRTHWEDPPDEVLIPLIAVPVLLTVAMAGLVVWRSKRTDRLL

T2: rat calcitonin receptor (rat, UniProt P32214 25-516)
T2 construct: whole, on cells; Membranes prepared from transiently transfected BHK tk'ts 13 cells; also called rCTR; rat calcitonin (a) receptor
T2 sequence (looked up): T1 sequence (looked up) 1

T3: human calcitonin receptor (human, UniProt P30988 25-474)
T3 construct: whole, on cells; Membranes from stably transfected BHK cells; also called hCTR; hCT
T3 sequence (looked up): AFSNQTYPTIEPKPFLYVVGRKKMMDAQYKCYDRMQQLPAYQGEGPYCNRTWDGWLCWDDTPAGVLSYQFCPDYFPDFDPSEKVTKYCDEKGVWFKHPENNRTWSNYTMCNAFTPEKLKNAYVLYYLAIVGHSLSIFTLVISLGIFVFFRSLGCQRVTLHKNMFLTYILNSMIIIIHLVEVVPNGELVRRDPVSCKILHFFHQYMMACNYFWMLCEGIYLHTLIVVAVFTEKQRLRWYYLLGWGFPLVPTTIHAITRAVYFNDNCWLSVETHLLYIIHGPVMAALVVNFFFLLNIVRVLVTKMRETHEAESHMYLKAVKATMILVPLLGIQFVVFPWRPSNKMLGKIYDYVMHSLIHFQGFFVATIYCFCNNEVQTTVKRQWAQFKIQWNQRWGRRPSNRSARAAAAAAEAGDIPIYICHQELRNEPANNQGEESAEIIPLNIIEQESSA

B1: N^ε1-[(4S)-4-carboxy-4-(19-carboxynonadecanoylamino)butanoyl]-[Glu14,Arg17,Pro21,Pro27,Pro34,Glu35]-h-amylin (peptide)
peptide: K([γGlu-C20 diacid])CNTATCATQRLAEFLRHSSPNFGAIPSSTNVGPETY-NH2
modifications: disulfide 2-7; N-terminus assumed
SMILES: CC[C@H](C)[C@H](NC(=O)[C@H](C)NC(=O)CNC(=O)[C@H](Cc1ccccc1)NC(=O)[C@H](CC(N)=O)NC(=O)[C@@H]1CCCN1C(=O)[C@H](CO)NC(=O)[C@H](CO)NC(=O)[C@H](Cc1c[nH]cn1)NC(=O)[C@H](CCCNC(=N)N)NC(=O)[C@H](CC(C)C)NC(=O)[C@H](Cc1ccccc1)NC(=O)[C@H](CCC(=O)O)NC(=O)[C@H](C)NC(=O)[C@H](CC(C)C)NC(=O)[C@H](CCCNC(=N)N)NC(=O)[C@H](CCC(N)=O)NC(=O)[C@@H](NC(=O)[C@H](C)NC(=O)[C@@H]1CSSC[C@H](NC(=O)[C@@H](N)CCCCNC(=O)CC[C@H](NC(=O)CCCCCCCCCCCCCCCCCCC(=O)O)C(=O)O)C(=O)N[C@@H](CC(N)=O)C(=O)N[C@@H]([C@@H](C)O)C(=O)N[C@@H](C)C(=O)N[C@@H]([C@@H](C)O)C(=O)N1)[C@@H](C)O)C(=O)N1CCC[C@H]1C(=O)N[C@@H](CO)C(=O)N[C@@H](CO)C(=O)N[C@H](C(=O)N[C@@H](CC(N)=O)C(=O)N[C@H](C(=O)NCC(=O)N1CCC[C@H]1C(=O)N[C@@H](CCC(=O)O)C(=O)N[C@H](C(=O)N[C@@H](Cc1ccc(O)cc1)C(N)=O)[C@@H](C)O)C(C)C)[C@@H](C)O
B2: N^-1-[(4S)-4-carboxy-4-(19-carboxynonadecanoylamino)butanoyl]-Gly[Arg1,His14,Arg17,Pro21,Pro27,His34]-h-amylin (peptide)
peptide: {C20 diacid-γGlu}-GRCNTATCATQRLAHFLRHSSPNFGAIPSSTNVGHNTY-NH2
modifications: disulfide 3-8
SMILES: CC[C@H](C)[C@H](NC(=O)[C@H](C)NC(=O)CNC(=O)[C@H](Cc1ccccc1)NC(=O)[C@H](CC(N)=O)NC(=O)[C@@H]1CCCN1C(=O)[C@H](CO)NC(=O)[C@H](CO)NC(=O)[C@H](Cc1c[nH]cn1)NC(=O)[C@H](CCCNC(=N)N)NC(=O)[C@H](CC(C)C)NC(=O)[C@H](Cc1ccccc1)NC(=O)[C@H](Cc1c[nH]cn1)NC(=O)[C@H](C)NC(=O)[C@H](CC(C)C)NC(=O)[C@H](CCCNC(=N)N)NC(=O)[C@H](CCC(N)=O)NC(=O)[C@@H](NC(=O)[C@H](C)NC(=O)[C@@H]1CSSC[C@H](NC(=O)[C@H](CCCNC(=N)N)NC(=O)CNC(=O)CC[C@H](NC(=O)CCCCCCCCCCCCCCCCCCC(=O)O)C(=O)O)C(=O)N[C@@H](CC(N)=O)C(=O)N[C@@H]([C@@H](C)O)C(=O)N[C@@H](C)C(=O)N[C@@H]([C@@H](C)O)C(=O)N1)[C@@H](C)O)C(=O)N1CCC[C@H]1C(=O)N[C@@H](CO)C(=O)N[C@@H](CO)C(=O)N[C@H](C(=O)N[C@@H](CC(N)=O)C(=O)N[C@H](C(=O)NCC(=O)N[C@@H](Cc1c[nH]cn1)C(=O)N[C@@H](CC(N)=O)C(=O)N[C@H](C(=O)N[C@@H](Cc1ccc(O)cc1)C(N)=O)[C@@H](C)O)C(C)C)[C@@H](C)O
notes: also called compound 100
B3: N^-1-[(4S)-4-carboxy-4-(19-carboxynonadecanoylamino)butanoyl]-Gly[Arg1,Ala14,Arg17,Pro21,Pro27,His34]-h-amylin (peptide)
peptide: {C20 diacid-γGlu}-GRCNTATCATQRLAAFLRHSSPNFGAIPSSTNVGHNTY-NH2
modifications: disulfide 3-8
SMILES: CC[C@H](C)[C@H](NC(=O)[C@H](C)NC(=O)CNC(=O)[C@H](Cc1ccccc1)NC(=O)[C@H](CC(N)=O)NC(=O)[C@@H]1CCCN1C(=O)[C@H](CO)NC(=O)[C@H](CO)NC(=O)[C@H](Cc1c[nH]cn1)NC(=O)[C@H](CCCNC(=N)N)NC(=O)[C@H](CC(C)C)NC(=O)[C@H](Cc1ccccc1)NC(=O)[C@H](C)NC(=O)[C@H](C)NC(=O)[C@H](CC(C)C)NC(=O)[C@H](CCCNC(=N)N)NC(=O)[C@H](CCC(N)=O)NC(=O)[C@@H](NC(=O)[C@H](C)NC(=O)[C@@H]1CSSC[C@H](NC(=O)[C@H](CCCNC(=N)N)NC(=O)CNC(=O)CC[C@H](NC(=O)CCCCCCCCCCCCCCCCCCC(=O)O)C(=O)O)C(=O)N[C@@H](CC(N)=O)C(=O)N[C@@H]([C@@H](C)O)C(=O)N[C@@H](C)C(=O)N[C@@H]([C@@H](C)O)C(=O)N1)[C@@H](C)O)C(=O)N1CCC[C@H]1C(=O)N[C@@H](CO)C(=O)N[C@@H](CO)C(=O)N[C@H](C(=O)N[C@@H](CC(N)=O)C(=O)N[C@H](C(=O)NCC(=O)N[C@@H](Cc1c[nH]cn1)C(=O)N[C@@H](CC(N)=O)C(=O)N[C@H](C(=O)N[C@@H](Cc1ccc(O)cc1)C(N)=O)[C@@H](C)O)C(C)C)[C@@H](C)O
B4: N{-1}-[(4S)-4-carboxy-4-(19-carboxynonadecanoylamino)butanoyl]-Gly[Arg1,His14,Arg17,Pro21,Pro27]-h-amylin (peptide)
peptide: {C20 diacid-γGlu}-GRCNTATCATQRLAHFLRHSSPNFGAIPSSTNVGSNTY-NH2
modifications: disulfide 3-8
SMILES: CC[C@H](C)[C@H](NC(=O)[C@H](C)NC(=O)CNC(=O)[C@H](Cc1ccccc1)NC(=O)[C@H](CC(N)=O)NC(=O)[C@@H]1CCCN1C(=O)[C@H](CO)NC(=O)[C@H](CO)NC(=O)[C@H](Cc1c[nH]cn1)NC(=O)[C@H](CCCNC(=N)N)NC(=O)[C@H](CC(C)C)NC(=O)[C@H](Cc1ccccc1)NC(=O)[C@H](Cc1c[nH]cn1)NC(=O)[C@H](C)NC(=O)[C@H](CC(C)C)NC(=O)[C@H](CCCNC(=N)N)NC(=O)[C@H](CCC(N)=O)NC(=O)[C@@H](NC(=O)[C@H](C)NC(=O)[C@@H]1CSSC[C@H](NC(=O)[C@H](CCCNC(=N)N)NC(=O)CNC(=O)CC[C@H](NC(=O)CCCCCCCCCCCCCCCCCCC(=O)O)C(=O)O)C(=O)N[C@@H](CC(N)=O)C(=O)N[C@@H]([C@@H](C)O)C(=O)N[C@@H](C)C(=O)N[C@@H]([C@@H](C)O)C(=O)N1)[C@@H](C)O)C(=O)N1CCC[C@H]1C(=O)N[C@@H](CO)C(=O)N[C@@H](CO)C(=O)N[C@H](C(=O)N[C@@H](CC(N)=O)C(=O)N[C@H](C(=O)NCC(=O)N[C@@H](CO)C(=O)N[C@@H](CC(N)=O)C(=O)N[C@H](C(=O)N[C@@H](Cc1ccc(O)cc1)C(N)=O)[C@@H](C)O)C(C)C)[C@@H](C)O
notes: also called compound 99
B5: N^-1-[(4S)-4-carboxy-4-(19-carboxynonadecanoylamino)butanoyl]-Gly[Arg1,His14,Arg17,Pro21,Pro27,Pro34]-h-amylin (peptide)
peptide: {C20 diacid-γGlu}-GRCNTATCATQRLAHFLRHSSPNFGAIPSSTNVGPNTY-NH2
modifications: disulfide 3-8
SMILES: CC[C@H](C)[C@H](NC(=O)[C@H](C)NC(=O)CNC(=O)[C@H](Cc1ccccc1)NC(=O)[C@H](CC(N)=O)NC(=O)[C@@H]1CCCN1C(=O)[C@H](CO)NC(=O)[C@H](CO)NC(=O)[C@H](Cc1c[nH]cn1)NC(=O)[C@H](CCCNC(=N)N)NC(=O)[C@H](CC(C)C)NC(=O)[C@H](Cc1ccccc1)NC(=O)[C@H](Cc1c[nH]cn1)NC(=O)[C@H](C)NC(=O)[C@H](CC(C)C)NC(=O)[C@H](CCCNC(=N)N)NC(=O)[C@H](CCC(N)=O)NC(=O)[C@@H](NC(=O)[C@H](C)NC(=O)[C@@H]1CSSC[C@H](NC(=O)[C@H](CCCNC(=N)N)NC(=O)CNC(=O)CC[C@H](NC(=O)CCCCCCCCCCCCCCCCCCC(=O)O)C(=O)O)C(=O)N[C@@H](CC(N)=O)C(=O)N[C@@H]([C@@H](C)O)C(=O)N[C@@H](C)C(=O)N[C@@H]([C@@H](C)O)C(=O)N1)[C@@H](C)O)C(=O)N1CCC[C@H]1C(=O)N[C@@H](CO)C(=O)N[C@@H](CO)C(=O)N[C@H](C(=O)N[C@@H](CC(N)=O)C(=O)N[C@H](C(=O)NCC(=O)N1CCC[C@H]1C(=O)N[C@@H](CC(N)=O)C(=O)N[C@H](C(=O)N[C@@H](Cc1ccc(O)cc1)C(N)=O)[C@@H](C)O)C(C)C)[C@@H](C)O

What follows are binders tested against T1, rat amylin receptor (rat calcitonin …) (assay: SPA competition vs 125I-rat amylin, membranes (Assay VI)).

In order of falling IC50:
1. B2  0.0112 µM
2. B3  0.00807 µM
3. B4  0.0027 µM
4. B5  0.000674 µM
5. {C20 diacid-γGlu}-GRCNTATCATQRLAAFLRHSSPNFGAIPSSTNVGPNTY-NH2 (disulfide 3-8)  0.000436 µM
6. B1  0.000164 µM

These binders were tested against T2, rat calcitonin receptor (assay: SPA competition vs 125I-calcitonin, membranes (Assay VIII)).

In order of rising IC50:
1. B1  0.0104 µM
2. {C20 diacid-γGlu}-GRCNTATCATQRLAAFLRHSSPNFGAIPSSTNVGPNTY-NH2 (disulfide 3-8)  0.0563 µM
3. B5  0.0659 µM
4. B4  0.216 µM
5. B2  0.311 µM
6. B3  0.492 µM

What follows are binders tested against T2, rat calcitonin receptor (assay: ratio of IC50 on rat calcitonin receptor to IC50 on rat amylin receptor).

In order of falling “Ratio rCT/rAmylin binding” value:
1. {C20 diacid-γGlu}-GRCNTATCATQRLAAFLRHSSPNFGAIPSSTNVGPNTY-NH2 (disulfide 3-8)  129
2. B5  97.7
3. B4  79.8
4. B1  63.2
5. B3  60.9
6. B2  27.7

Each binder was assayed against T3, human calcitonin receptor (assay: ratio of IC50 on human calcitonin receptor to IC50 on human amylin receptor).
Summary of the method: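 Membranes (35 ng/μL final) + SPA beads, 50 mM Hepes pH 7.4 buffer with 1 mM CaCl2, 5 mM MgCl₂, 0.1% OA, 0.02% Tween20; 120 min, 25° C, shaking; centrifuged, counted; IC₅₀ by one-site binding competition.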

In order of falling “Ratio hCT/hAmylin binding” value:
1. B4  100
2. B3  68.6
3. B2  65.3
4. B5  36.2
5. {C20 diacid-γGlu}-GRCNTATCATQRLAAFLRHSSPNFGAIPSSTNVGPNTY-NH2 (disulfide 3-8)  26.5
6. B1  13.3

— patent US20140087995A1 (published 2014)
